Earlier results as cited in patent publication US20110171162A1, “POLYMER CONJUGATES OF THYMOSIN ALPHA 1 PEPTIDES” (NEKTAR THERAPEUTICS, priority 2008, published 2011).

Details: in human plasma

thymosin alpha 1: Twenty-eight amino acid peptide, SEQ ID NO: 1 (SDAAVDTSSEITTKDLKEKKEVVEEAEN); sold as ZADAXIN thymosin alpha 1, injection (thymalfasin) (listed as Homo sapiens)
half-life: approximately two
